From PMC3769929

Biological target: hAgo1 (Homo sapiens, UniProt Q9UL18 1-857)
Experiment: X-ray crystallography

## UGAGGUAGUAGGUUGUAUAGUU (ssRNA, 5' phosphate) [let-7 22mer guide]
  binding result: binds
